Measured values reported in paper PMC11035111, “Angiotension II directly bind P2X7 receptor to induce myocardial ferroptosis and remodeling by activating human antigen R” (Redox Biology, 2024).

Target: T1, biotinylated angiotensin II (biotin (position not given))
T1 construct: angiotensin II, the peptide hormone cut from angiotensinogen; Held by its biotin on the SA chip (BLI) or on streptavidin beads (pull-down); also called Bio-Ang II; bio-Ang II; source: bought: created by Beijing Fanbo Biological Chemical Co., Ltd
Assay: BLI; Octet R8; biotinylated Ang II (1 ug/ml in 1x PBS) captured on an SA chip to a signal of 0.8 nm; P2X7R protein in SD buffer at 1, 0.5, 0.25 and 0.0625 uM
Settings: both partners purified

B1: purified P2X7R protein (extracellular domain) (domain or fragment)
chain: SDKLYQRKEPLISSVHTKVKGVAEVTENVTEGGVTKLVHGIFDTADYTLPLQGNSFFVMTNYLKSEGQEQKLCPEYPSRGKQCHSDQGCIKGWMDPQSKGIQTGRCIPYDQKRKTCEIFAWCPAEEGKEAPRPALLRSAENFTVLIKNNIDFPGHNYTTRNILPGMNISCTFHKTWNPQCPIFRLGDIFQEIGENFTEVAVQGGIMGIEIYWDCNLDSWSHRCQPKYSFRRLDDKYTNESLFPGYNFRYAKYYKENGMEKRTLIKAFGVRFDILVFGTGGKF
With B1 the Kd was 9.63 nM.
